Assay [1] concerns the target beta-Nrxn1ΔC, C-terminal truncated mutant beta-Nrxn1 (-AS4). Put plainly: co-IP; HA antibody (clone 3F10) and Protein-G Sepharose from cortex lysates of adult control and beta-Nrxn1ΔC mice (untreated, or DOX 14 days then 30 days re-expression); lysis buffer 20 mM Tris-HCl pH 7.5, 100 mM NaCl, 5 mM MgCl2, 5 mM CaCl2, 1% Triton X-100; blots for Nlgn1, Nlgn2, Nlgn3, LRRTM2.

For assay [2] the target is unchanged. Put plainly: co-IP; HA antibody (clone 3F10) and Protein-G Sepharose from striatum lysates of adult control and beta-Nrxn1ΔC mice; lysis buffer 20 mM Tris-HCl pH 7.5, 100 mM NaCl, 5 mM MgCl2, 5 mM CaCl2, 1% Triton X-100; blots for Nlgn1, Nlgn2, Nlgn3, LRRTM2.

Regarding “Nlgn1 (neuroligin-1) (from UniProt Q99K10 46-843) (natural protein)”, the Nlgn1 levels in the co-immunoprecipitates as percentage of total Nlgn1 in the initial lysates was 5.01% in assay [1] and 1.74% in assay [2].

The values above are taken from PMC11909895.
